Data: PMC10437998, “A previously unrecognized superfamily of macro-conotoxins includes an inhibitor of the sensory neuron calcium channel Cav2.3” (PLOS Biology, 2023)
“And” between values parts separate entries of the source, which are not always exact repeats. Equal entries are not always repeated.

Assays:
[1] = target: the molecule itself; assay: […] (pH 7.8), room temperature; 1 mg/mL to 13.2 mg/mL (100 μM to 1.3 mM); […]
[2] = target: the molecule itself; assay: SEC; […] (pH 7.8), 150 mM NaCl, 0.5 mL/min; […]

B1: Mu8.1 (SLC_Mu8.1), macro-conotoxin from Conus mucronatus (natural protein)
chain: GENSDNLTHCRLFEFRLCLLECMSLTLDHCYARCTTVITQIHGSDTNRFDCTIFKTCYYRCYVLGKTEDHCWKGTATSVTGDVGDLEFC
notes: also called Mu8.1_38; Mu8.1_59
stoichiometry N [1]: 4 and 6
stoichiometry N [2]: 2
